The values that follow come from PMC9951875.

This data set deals with UspA2 (ubiquitous surface protein A2), displayed on E. coli BL21(DE3) (Moraxella catarrhalis Bc5) (UniProt Q9XD55). Nature of the data set: fluorescence cell-binding titration (eluted FAM-aptamer).

What is called Kd is the concentration at which binding is half-saturated. High values mean a looser complex, low ones a tighter complex. “GGGCCACCAACGACATTGCGGCAGCCACCCAACGACCACGCTCATCCTCCTCCCCCGCACCGTCCCATGCTGCGTCACTCTGGAT [FAM-Apt1_RC]” displayed a Kd of 3.4 nM.
The value for “ATCCAGAGTGACGCAGCATGGGACGGTGCGGGGGAGGAGGATGAGCGTGGTCGTTGGGTGGCTGCCGCAATGTCGTTGGTGGCCC [FAM-Apt1]” was 214 nM.
